Data on five sequences can be found in the supplement of paper PMC11316812.

± gives the standard deviation of the averaged measurements.

In one series the test system is hTERT-HMEC. The experiment in a line: percentage of EdU-negative (G0-arrested) nuclei per well, 72 h; higher = more G0 arrest. As to conditions: reference: sequence is the full UniProt precursor, the tested protein was the secreted form or ectodomain.
Another series concerns MCF7. The series is described as above. As to conditions: reference: sequence is the full UniProt precursor, the tested protein was the secreted form or ectodomain.
Setting [1] is: protein concentration 0.0225 µM.
The mark [2] stands for this setting: protein concentration 0.01325 µM.
The mark [3] stands for this setting: protein concentration 0.1325 µM.
Setting [4] is: protein concentration 0.0155 µM.
Setting [5] is: protein concentration 0.01025 µM.
Setting [6] is: protein concentration 0.1025 µM.
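Also: secreted proteins added to cultured cells, EdU pulse at the end, nuclei found by Hoechst imaging, EdU status from nuclear versus surrounding ring intensity ratio, PBS as neutral control.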

As for “MTTQLPAYVAILLFYVSRASCQDTFTAAVYEHAAILPNATLTPVSREEALALMNRNLDILEGAITSAADQGAHIIVTPEDAIYGWNFNRDSLYPYLEDIPDPEVNWIPCNNRNRFGQTPVQERLSCLAKNNSIYVVANIGDKKPCDTSDPQCPPDGRYQYNTDVVFDSQGKLVARYHKQNLFMGENQFNVPKEPEIVTFNTTFGSFGIFTCFDILFHDPAVTLVKDFHVDTIVFPTAWMNVLPHLSAVEFHSAWAMGMRVNFLASNIHYPSKKMTGSGIYAPNSSRAFHYDMKTEEGKLLLSQLDSHPSHSAVVNWTSYASSIEALSSGNKEFKGTVFFDEFTFVKLTGVAGNYTVCQKDLCCHLSYKMSENIPNEVYALGAFDGLHTVEGRYYLQICTLLKCKTTNLNTCGDSAETASTRFEMFSLSGTFGTQYVFPEVLLSENQLAPGEFQVSTDGRLFSLKPTSGPVLTVTLFGRLYEKDWASNASSGLTAQARIIMLIVIAPIVCSLSW”, the “percentage of EdU-negative” value in the series with hTERT-HMEC (setting [1]) was determined as 5.11 ± 0.53%; with hTERT-HMEC (protein concentration 0.225 µM), 4.83 ± 0.5%; with MCF7 (setting [1]) it was 26.6 ± 0.41%; in the series on MCF7 (protein concentration 0.225 µM), 26.3 ± 2.3%.
Regarding “MTTQLRVVHLLPLLLACFVQTSPKQEKMKMDCHKDEKGTIYDYEAIALNKNEYVSFKQYVGKHILFVNVATYCGLTAQYPELNALQEELKPYGLVVLGFPCNQFGKQEPGDNKEILPGLKYVRPGGGFVPSFQLFEKGDVNGEKEQKVFSFLKHSCPHPSEILGTFKSISWDPVKVHDIRWNFEKFLVGPDGIPVMRWSHRATVSSVKTDILAYLKQFKTK”, the “percentage of EdU-negative” value in the series on hTERT-HMEC (setting [1]) was 5.29 ± 0.31%; in the series on hTERT-HMEC (protein concentration 0.225 µM) it was 7.84 ± 0.53%; with MCF7 (setting [1]), 26.1 ± 1.7%; in the series with MCF7 (protein concentration 0.225 µM), 27.7 ± 0.58%.
Take “MTTWSLRRRPARTLGLLLLVVLGFLVLRRLDWSTLVPLRLRHRQLGLQAKGWNFMLEDSTFWIFGGSIHYFRVPREYWRDRLLKMKACGLNTLTTYVPWNLHEPERGKFDFSGNLDLEAFVLMAAEIGLWVILRPGPYICSEMDLGGLPSWLLQDPGMRLRTTYKGFTEAVDLYFDHLMSRVVPLQYKRGGPIIAVQVENEYGSYNKDPAYMPYVKKALEDRGIVELLLTSDNKDGLSKGIVQGVLATINLQSTHELQLLTTFLFNVQGTQPKMVMEYWTGWFDSWGGPHNILDSSEVLKTVSAIVDAGSSINLYMFHGGTNFGFMNGAMHFHDYKSDVTSYDYDAVLTEAGDYTAKYMKLRDFFGSISGIPLPPPPDLLPKMPYEPLTPVLYLSLWDALKYLGEPIKSEKPINMENLPVNGGNGQSFGYILYETSITSSGILSGHVHDRGQVFVNTVSIGFLDYKTTKIAVPLIQGYTVLRILVENRGRVNYGENIDDQRKGLIGNLYLNDSPLKNFRIYSLDMKKSFFQRFGLDKWSSLPETPTLPAFFLGSLSISSTPCDTFLKLEGWEKGVVFINGQNLGRYWNIGPQKTLYLPGPWLSSGINQVIVFEETMAGPALQFTETPHLGRNQYIK [Q8IW92]”: the “percentage of EdU-negative” value turned out to be 4.88 ± 0.97% in the series with hTERT-HMEC (setting [2]), 9.63 ± 0.41% with hTERT-HMEC (setting [3]), 23.6 ± 0.28% in the series with MCF7 (setting [2]) and 27.7 ± 0.33% in the series with MCF7 (setting [3]).
As for “MTVARPSVPAALPLLGELPRLLLLVLLCLPAVWGDCGLPPDVPNAQPALEGRTSFPEDTVITYKCEESFVKIPGEKDSVICLKGSQWSDIEEFCNRSCEVPTRLNSASLKQPYITQNYFPVGTVVEYECRPGYRREPSLSPKLTCLQNLKWSTAVEFCKKKSCPNPGEIRNGQIDVPGGILFGATISFSCNTGYKLFGSTSSFCLISGSSVQWSDPLPECREIYCPAPPQIDNGIIQGERDHYGYRQSVTYACNKGFTMIGEHSIYCTVNNDEGEWSGPPPECRGKSLTSKVPPTVQKPTTVNVPTTEVSPTSQKTTTKTTTPNAQATRSTPVSRTTKHFHETTPNKGSGTTSGTTRLLSGHTCFTLTGLLGTLVTMGLLT”, the “percentage of EdU-negative” value turned out to be 4.51 ± 0.44% with hTERT-HMEC (setting [4]), 7.07 ± 0.42% with hTERT-HMEC (protein concentration 0.155 µM), 26.2 ± 1% in the series with MCF7 (setting [4]) and 26.1 ± 1.8% in the series on MCF7 (protein concentration 0.155 µM).
For “MTVFLSFAFLAAILTHIGCSNQRRSPENSGRRYNRIQHGQCAYTFILPEHDGNCRESTTDQYNTNALQRDAPHVEPDFSSQKLQHLEHVMENYTQWLQKLENYIVENMKSEMAQIQQNAVQNHTATMLEIGTSLLSQTAEQTRKLTDVETQVLNQTSRLEIQLLENSLSTYKLEKQLLQQTNEILKIHEKNSLLEHKILEMEGKHKEELDTLKEEKENLQGLVTRQTYIIQELEKQLNRATTNNSVLQKQQLELMDTVHNLVNLCTKEGVLLKGGKREEEKPFRDCADVYQAGFNKSGIYTIYINNMPEPKKVFCNMDVNGGGWTVIQHREDGSLDFQRGWKEYKMGFGNPSGEYWLGNEFIFAITSQRQYMLRIELMDWEGNRAYSQYDRFHIGNEKQNYRLYLKGHTGTAGKQSSLILHGADFSTKDADNDNCMCKCALMLTGGWWFDACGPSNLNGMFYTAGQNHGKLNGIKWHYFKGPSYSLRSTTMMIRPLDF”, the “percentage of EdU-negative” value in the series on hTERT-HMEC (setting [5]) is 4.915 ± 0.017%; in the series on hTERT-HMEC (setting [6]) it was 8.6 ± 2%; with MCF7 (setting [5]) it was 25.2 ± 0.66%; in the series on MCF7 (setting [6]), 26.4 ± 0.81%.
